Experimental data reported in patent US20130209355A1 (Genmab, published 2013).

Tests used:
[1] = biological target: Human recombinant CD38 (human, UniProt P28907 43-300, limits assumed); test: cell-based or functional assay
[2] = biological target: T1, CD38 on Daudi-luc cells (UniProt P28907 1-300); test: flow cytometry on Daudi-luc cells, anti-human IgG-FITC
T1 construct: whole, on cells; also called Daudi cells

[3] = biological target: T2, human CD38 on CD38-transfected CHO cells (CHO-CD38 cells) (human, UniProt P28907 1-300); test: flow cytometry on CHO-CD38 cells, anti-human IgG-FITC
T2 construct: The construct used to transfect the CHO cells is not described; also called CHO cells transfected with CD38; cellular expressed CD38

[4] = biological target: T3, HA-CD38 (N-terminal HA tag, extracellular domain of human CD38), wild type (human, UniProt P28907 45-300); test: ELISA, HA-CD38 captured by anti-HA antibody
T3 construct: Used as culture supernatant of HEK-293F cells, captured by anti-HA antibody; also called wild type (WT) CD38; pEE13.4HACD38

pmol cADPR/min (reverse cyclase reaction) (pmol cADPR/min) [1]	binding result [2]	binding result [3]	binding result [4]	IC50 of inhibition of NAADP production (base-exchange activity, HPLC) [1] [µg/mL]	Molecule
–	binds	binds	binds	–	anti-CD38 antibody 026 (antibody, human IgG1, V domains shown, also called -057) VH: QVQLVQSGAEVKKPGSSVKVSCKAFGGTFSSYAISWVRQAPGQGLEWMGRIIRFLGKTNHAQKFQGRVTLTADKSTNTAYMELSSLRSEDTAVYYCAGEPGDRDPDAVDIWGQGTMVTVSS VL: DIQMTQSPSSLSASVGDRVTITCRASQGIRSWLAWYQQKPEKAPKSLIYAASSLQSGVPSRFSGSGSGTDFTLTISSLQPEDFATYYCQQYNSYPLTFGGGTKVEIK
–	binds	binds	binds	–	anti-CD38 antibody 049 (antibody, human IgG1, V domains shown) VH: QVQLVQSGAEVMKPGSSVKVSCKASGGTFRSYAISWVRQAPGQGLEWMGRIIVFLGKTNYAQKFQGRVTLTADKSTTTAYMELSSLRSEDTAVYYCTGEPGARDPDAFDIWGQGTMVTVSS VL: DIQMTQSPSSLSASVGDRVTITCRASQGIRSWLAWYQQKPEKAPKSLIYAASSLQSGVPSRFSGSGSGTDFTLTISSLQPEDFATYYCQQYNNYPLTFGGGTKVEIK
–	binds	binds	–	–	anti-CD38 antibody 056 (antibody, human IgG1, V domains shown) VH: QVQLVQSGAEVKKPGSSVKVSCKPSGGTFRSYAISWVRQAPGQGLEWMGRIIVFLGKVNYAQRFQGRVTLTADKSTTTAYMELSSLRSEDTAVYYCTGEPGARDPDAFDIWGQGTMVTVSS VL: DIQMTQSPSSLSASVGDRVTITCRASQGIRSWLAWYQQKPEKAPKSLIYAASSLQSGVPSRFSGSGSGTDFTLTISSLQPEDFATYYCQQYNNYPLTFGGGTKVEIK

The next lines start with the molecule.

Molecule	pmol cADPR/min (reverse cyclase reaction) (pmol cADPR/min) [1]	binding result [2]	binding result [3]	binding result [4]	IC50 of inhibition of NAADP production (base-exchange activity, HPLC) [1] [µg/mL]
HuMab-KLH (antibody)	4.3	–	–	–	–
anti-CD38 antibody 025 (antibody, human IgG1, V domains shown) VH: QVQLVQSGAEVKKPGSSVKVSCKAFGGTFSSYAISWVRQAPGQGLEWMGRIIRFLGKANHAQKFQGRVTLTADKSTNTAYMELSSLRSEDTAVYYCAGEPGDRDPDAVDIWGQGTMVTVSS VL: DIQMTQSPSSLSASVGDRVTITCRASQGIRSWLAWYQQKPEKAPKSLIYAASSLQSGVPSRFSGSGSGTDFTLTISSLQPEDFATYYCQQYNSYPLTFGGGTKVEIK	–	binds	binds	binds	–
anti-CD38 antibody 028 (antibody, human IgG1, V domains shown) VH: QVQLVQSGAEVKKPGSSVKVSCKAFGGTFSSYAISWVRQAPGQGLEWMGRIIRFLGIANYAQKFQGRVTLIADKSTNTAYMELSSLRSEDTAVYYCAGEPGERDPDAVDIWGQGTMVTVSS VL: DIQMTQSPSSLSASVGDRVTITCRASQGIRSWLAWYQQKPEKAPKSLIYAASSLQSGVPSRFSGSGSGTDFTLTISSLQPEDFATYYCQQYNSYPLTFGGGTKVEIK	–	–	–	–	0.14
